Like-named read-outs stand apart in the source and are kept apart here.
Tests used:
[1] = target: BKPyV VP1 pentameric core (residues 26-297) (BK polyomavirus (BKPyV)) (UniProt P03088); test: crystal structure
[2] = target: 319C07 (Potravitug), human IgG monoclonal antibody (human); test: BLI
[3] = target: T1, BKPyV VP1 pentameric core (residues 26-297) (BK polyomavirus, strain ; …, UniProt P03088); test: crystal structure
[4] = target: BKPyV VP1 pentamer, genotype III-AS (M23122), ALFA-tagged (BK polyomavirus (BKPyV), strain AS, UniProt P14996); test: BLI
[5] = target: T1, BKPyV VP1 pentameric core (residues …); test: crystal structure; remark: listed apart in the source
[6] = target: T1, BKPyV VP1 pentameric core (residues …); test: crystal structure; remark: listed apart in the source

## BKPyV VP1 pentameric core (residues 26-297) (from UniProt P03088 26-297) (domain or fragment)
[1]
  stoichiometry N: 5

## BKPyV VP1 single-point mutant K69N in the Dunlop background (from UniProt P03088 1-362) (natural protein)
[2]
  Kd: 4.5 µM
  fold reduction of affinity against the Dunlop background: > 1000 fold

B1: ORT-VHH16 (VHH)
VHH: EVQLVESGGGLVQAGGSLRLSCAASGRTFDHYAMGWFRQAPGKERELVARISSGGGTTNYADSVKGRFTISRDNAKNTVSLQMNSLKPEDTAVYYCVGEIQYGTRYYWGQGTQVTVSS
[3]
  stoichiometry N: 1 nanobody per VP1 monomer

B2: 319C07 (Potravitug), human IgG monoclonal antibody (antibody, V domains shown)
VH: QVQLQQWGAGLLKPSETLSLTCAVYRGSFSAYYWTWFRQPPGKGLEWIGEINHRGYTNYNPSLRGRVSISVDTSKKQFSLKLRSVNAADTAVYYCATLRSTSGWHDYFDYWGQGTLVTVSS
VL: EIVLTQSPGTLSLSPGERATLSCRASQSVSSSYLAWYQQTPGQAPRLLIYGASSRATGIPDRFSGSGSGTDFTLTISRLEPEDFVVYFCLQYGSSPLTFGPGTKVDIK
[4]
  binding result: binds

B3: Potravitug single-chain variable fragment (scFv-319C07) (scFv, V domains shown)
VH: B2 VH
VL: B2 VL
[5]
  stoichiometry N: 3 scFv per VP1 pentamer

B4: ORT-VHH17 (VHH)
VHH: EVQLVESGGGLVQAGGSLRLSCAASGRDLSNYDMGWFRQAPGKEREFVATIKWRSGGTNHAESVKGRFTISRDNAKNTVYLQMSSLKPEDTAVYYCAAAPNWLGYSFKVDDYIYWGQGTQVTVSS
[6]
  stoichiometry N: 1 nanobody per VP1 monomer

From article doi:10.1101/2025.08.09.669497 (bioRxiv, 2025)
